Inhibition of the co-precipitation in yos9Δ cells against wild-type cells data for 1 molecule are collected here from publication PMC3315801.

For the assay, the target named is T1, CPY*-CPY fusion protein (S. cerevisiae) (UniProt P00729).
T1 sequence (P00729 whole entry, looked up): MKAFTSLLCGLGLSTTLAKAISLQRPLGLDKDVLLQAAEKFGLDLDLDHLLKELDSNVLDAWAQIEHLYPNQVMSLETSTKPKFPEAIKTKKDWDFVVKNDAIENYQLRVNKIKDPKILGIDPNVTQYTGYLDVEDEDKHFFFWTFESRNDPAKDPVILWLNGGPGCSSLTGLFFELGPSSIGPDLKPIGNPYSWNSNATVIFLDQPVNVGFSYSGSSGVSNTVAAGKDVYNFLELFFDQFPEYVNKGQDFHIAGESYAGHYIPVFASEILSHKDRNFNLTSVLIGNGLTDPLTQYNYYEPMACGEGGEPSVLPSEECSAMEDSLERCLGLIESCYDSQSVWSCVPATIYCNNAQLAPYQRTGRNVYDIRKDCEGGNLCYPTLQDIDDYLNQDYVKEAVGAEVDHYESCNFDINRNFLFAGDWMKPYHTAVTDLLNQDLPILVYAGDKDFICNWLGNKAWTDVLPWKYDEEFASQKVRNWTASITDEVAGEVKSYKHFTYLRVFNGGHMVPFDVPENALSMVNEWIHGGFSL
Nature of the assay: co-IP.

B1: Hrd1p (enzyme)
chain: MVPENRRKQLAIFVVVTYLLTFYCVYSATKTSVSFLQVTLKLNEGFNLMVLSIFILLNSTLLWQLLTKLLFGELRLIEHEHIFERLPFTIINTLFMSSLFHERYFFTVAFFGLLLLYLKVFHWILKDRLEALLQSINDSTTMKTLIFSRFSFNLVLLAVVDYQIITRCISSIYTNQKSDIESTSLYLIQVMEFTMLLIDLLNLFLQTCLNFWEFYRSQQSLSNENNHIVHGDPTDENTVESDQSQPVLNDDDDDDDDDRQFTGLEGKFMYEKAIDVFTRFLKTALHLSMLIPFRMPMMLLKDVVWDILALYQSGTSLWKIWRNNKQLDDTLVTVTVEQLQNSANDDNICIICMDELIHSPNQQTWKNKNKKPKRLPCGHILHLSCLKNWMERSQTCPICRLPVFDEKGNVVQTTFTSNSDITTQTTVTDSTGIATDQQGFANEVDLLPTRTTSPDIRIVPTQNIDTLAMRTRSTSTPSPTWYTFPLHKTGDNSVGSSRSAYEFLITNSDEKENGIPVKLTIENHEVNSLHGDGGEQIAKKIVIPDKFIQHI
In turn, B1 displayed an inhibition of the co-precipitation in yos9Δ cells against wild-type cells of 70%.
